For three molecules, Reading results are on record in patent US20230257472A1.

To fix the notation:
B1: B7 phage display single-chain antibody (scFv, part only; not given: linker; VH end may be cut, part only)
scFv, part: QIQLVQSGPELKKPGETVKISCKTSGYTFTNYGMNWVRQAPGKGLKWMGWINTYTGEPTYADDFKGRFAFSLETSAGTAYLQINNLENEDTATYFCARGDSFTTEILRNWYFDVWGAGTTDIQMTQTPASLSASVGETVTITCGASENIYGALNWYQRKQGKSPQLLIYGATNLADGMSSRFSGSGSGRQYSLKISSLHPDDVATYYCQNVLSTPWTFGGGTKLEMK
B2: B1 phage display single-chain antibody (scFv, part only; not given: scFv linker, phage partner, tag, V domains shown, not shown: another chain or arm of the molecule; large carriers; small tags and cut ends)
VH: QVQMQQSGAELVKPGASVMMSCKASGYTFTTYNIHWIKQTPGQGLEWIGDIYPGNGDASYNQKFRDRATLTADRSSSTAYLQLSSLTSEDSAIYYCATFSRFDGWFAYWGQGTLVTVSA
VL: DIVMSQSPASLAVSLGQRATISCRASRSVSTSGYSYMHWYQQKPGQPPKLLIYLASNLESGVPARFSGSGSGTNFTLNIHPVEEEDAATYYCQHSRELPYTFGGGTKLEIK
B3: F4 phage display single-chain antibody (scFv, part only; not given: scFv linker, phage partner, tag, V domains shown, not shown: another chain or arm of the molecule; large carriers; small tags and cut ends)
VH: QVQLKQSGAELVKPGASVKMSCKASGDTFPRYNMHWLKQTPGQGLEWIGAIFPGNGETSYNQNFKGKATLTADKSSSTAYMQLNSLTSEDSAVYYCARNSYYDYAWFTYWGQGTLVTVSA
VL: DIVMTQSPASLDVSLGQRATISCRASKSVSSSGYSFMHWYQQKPGQPPKLLISLASNLESGVPARFSGSGSGTDFTLTIYPVEEEDAATYYCQHSREFPPTFGSGTKLEIK

Sequence of His-tagged CD70 protein extracellular domain (His-TNC-CD70) (human) (chain, as listed by the source limits assumed): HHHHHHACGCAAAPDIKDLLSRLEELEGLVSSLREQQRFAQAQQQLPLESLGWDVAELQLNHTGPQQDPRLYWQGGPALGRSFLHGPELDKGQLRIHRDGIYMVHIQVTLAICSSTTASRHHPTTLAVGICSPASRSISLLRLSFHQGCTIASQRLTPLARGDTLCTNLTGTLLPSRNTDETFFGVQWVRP

This assay concerns the target His-tagged CD70 protein extracellular domain (His-TNC-CD70) (human). The assay can be described thus: phage ELISA, 2 ug/mL His-TNC-CD70 coated, anti-M13-HRP. (In general: In an ELISA, binding on a coated surface is turned into a signal by an enzyme label.)
The molecule B1 registered a Reading at OD450 nm of microplate reader of 1.97 OD450.
The molecule B2 registered a Reading at OD450 nm of microplate reader of 1.16 OD450.
The figure for B3 is 1.09 OD450.
